Residue numbers refer to the chain shown, from its start. Names may count otherwise. Values belong to the binder of their own block, whether it stands above or below them.
Key:
[1] = biological target: T1, mouse PRLR with an HA tag on HEK293 cells (mouse, UniProt Q08501 20-608); assay: FACS on HEK293/mPRLR cells
T1 construct: whole, on cells; also called HEK293/mPRLR; rodent PRLR; not shown: HA tag
T1 sequence (looked up): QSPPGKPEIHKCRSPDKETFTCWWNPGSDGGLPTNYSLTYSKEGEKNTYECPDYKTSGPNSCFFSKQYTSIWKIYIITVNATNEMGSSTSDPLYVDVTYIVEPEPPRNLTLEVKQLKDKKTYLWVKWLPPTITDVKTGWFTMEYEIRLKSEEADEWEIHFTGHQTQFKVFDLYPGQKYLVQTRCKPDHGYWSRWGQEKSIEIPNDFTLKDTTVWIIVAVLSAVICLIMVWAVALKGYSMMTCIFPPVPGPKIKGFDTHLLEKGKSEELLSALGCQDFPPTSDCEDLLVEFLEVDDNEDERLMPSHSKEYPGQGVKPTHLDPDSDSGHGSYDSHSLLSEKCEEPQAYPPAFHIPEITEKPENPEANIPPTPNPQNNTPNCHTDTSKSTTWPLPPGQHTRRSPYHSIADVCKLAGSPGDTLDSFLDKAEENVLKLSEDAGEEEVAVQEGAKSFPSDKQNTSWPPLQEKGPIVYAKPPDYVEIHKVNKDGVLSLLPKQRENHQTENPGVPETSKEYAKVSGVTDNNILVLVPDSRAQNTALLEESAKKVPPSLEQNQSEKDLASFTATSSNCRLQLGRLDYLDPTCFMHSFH

[2] = biological target: T2, human PRLR on cells (endogenous on T47D, T47D#11, MCF7); introduced in HEK293/hPRLR/STAT5-Luc, 293/hPRLR, … (human, UniProt P16471 25-622); assay: FACS on T47D cells
T2 construct: no tag is stated for these lines; also called prolactin receptor
T2 sequence: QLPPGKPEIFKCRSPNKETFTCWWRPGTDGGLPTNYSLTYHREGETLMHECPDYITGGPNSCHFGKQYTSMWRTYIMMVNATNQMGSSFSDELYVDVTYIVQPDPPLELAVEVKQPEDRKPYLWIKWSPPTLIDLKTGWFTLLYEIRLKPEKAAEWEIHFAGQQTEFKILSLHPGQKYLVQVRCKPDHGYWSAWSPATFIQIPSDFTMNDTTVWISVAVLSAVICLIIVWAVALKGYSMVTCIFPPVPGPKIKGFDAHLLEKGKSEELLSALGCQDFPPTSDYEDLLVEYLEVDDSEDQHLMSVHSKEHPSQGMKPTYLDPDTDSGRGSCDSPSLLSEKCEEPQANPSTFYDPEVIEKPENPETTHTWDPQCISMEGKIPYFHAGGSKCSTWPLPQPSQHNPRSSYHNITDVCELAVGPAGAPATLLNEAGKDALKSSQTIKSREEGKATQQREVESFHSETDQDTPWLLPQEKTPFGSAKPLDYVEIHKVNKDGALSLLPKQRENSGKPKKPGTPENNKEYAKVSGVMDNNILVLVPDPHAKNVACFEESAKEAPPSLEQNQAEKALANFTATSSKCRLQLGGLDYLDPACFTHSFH

[3] = biological target: T3, monkey macaca fascicularis PRLR construct with an HA tag on HEK293/mfPRLR cells (macaca fascicularis, UniProt A0A2K5WXK1 25-619); assay: FACS on HEK293/mfPRLR cells
T3 construct: stably transfected into HEK293
T3 sequence: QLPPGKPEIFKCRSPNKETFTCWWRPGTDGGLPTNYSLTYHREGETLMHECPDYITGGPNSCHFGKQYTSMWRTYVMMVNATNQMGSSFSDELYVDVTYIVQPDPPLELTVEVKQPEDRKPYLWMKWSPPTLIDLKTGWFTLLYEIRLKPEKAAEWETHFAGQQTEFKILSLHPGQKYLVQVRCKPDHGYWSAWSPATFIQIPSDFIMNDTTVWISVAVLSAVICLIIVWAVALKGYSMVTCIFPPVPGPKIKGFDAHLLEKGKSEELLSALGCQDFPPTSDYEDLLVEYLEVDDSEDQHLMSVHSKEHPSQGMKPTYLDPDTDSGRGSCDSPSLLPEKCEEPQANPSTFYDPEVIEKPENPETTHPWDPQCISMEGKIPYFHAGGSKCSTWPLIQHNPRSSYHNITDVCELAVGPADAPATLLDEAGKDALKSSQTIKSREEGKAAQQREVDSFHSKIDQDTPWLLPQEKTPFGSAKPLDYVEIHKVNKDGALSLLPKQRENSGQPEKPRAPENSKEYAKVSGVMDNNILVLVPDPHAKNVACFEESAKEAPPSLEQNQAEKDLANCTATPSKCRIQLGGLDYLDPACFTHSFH

[4] = biological target: T4, hPRLR.mFc (soluble dimeric human PRLR) (human); assay: SPR (Biacore), antibody capture, 37 C
T4 construct: dimeric PRLR construct
T4 chain: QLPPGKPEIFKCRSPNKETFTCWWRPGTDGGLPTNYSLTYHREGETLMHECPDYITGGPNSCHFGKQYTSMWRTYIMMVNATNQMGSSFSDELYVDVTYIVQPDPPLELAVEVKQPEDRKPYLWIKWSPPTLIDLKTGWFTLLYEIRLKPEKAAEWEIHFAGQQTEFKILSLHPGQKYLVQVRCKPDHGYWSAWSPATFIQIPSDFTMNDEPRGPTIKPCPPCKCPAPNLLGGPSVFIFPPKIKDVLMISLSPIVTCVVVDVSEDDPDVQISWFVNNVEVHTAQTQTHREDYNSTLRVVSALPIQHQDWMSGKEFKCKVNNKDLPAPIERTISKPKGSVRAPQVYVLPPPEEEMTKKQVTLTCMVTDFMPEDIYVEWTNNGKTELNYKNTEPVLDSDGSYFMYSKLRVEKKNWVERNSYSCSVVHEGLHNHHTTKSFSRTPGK
Method: (§1) Measurements were conducted on a T200 Biacore instrument. Kinetic association (kₐ) and dissociation (kd) rate constants were determined by processing and fitting the data to a 1:1 binding model using Scrubber 2.0 curve fitting software.

[5] = biological target: T5, mfPRLR.mmh (soluble monomeric macaca fascicularis PRLR) (macaca fascicularis); assay: SPR (Biacore), antibody capture, 37 C
T5 construct: soluble monomeric PRLR protein; also called macaca fascicularis (mf) PRLR.mmh; monkey PRLR
T5 chain: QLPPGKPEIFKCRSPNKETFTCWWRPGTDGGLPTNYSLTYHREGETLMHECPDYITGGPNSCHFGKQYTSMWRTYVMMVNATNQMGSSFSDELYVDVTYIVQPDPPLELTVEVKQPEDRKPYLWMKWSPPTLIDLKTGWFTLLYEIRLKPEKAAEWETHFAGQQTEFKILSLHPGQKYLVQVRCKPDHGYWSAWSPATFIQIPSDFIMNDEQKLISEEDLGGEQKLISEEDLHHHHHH
Method: as §1

[6] = biological target: T6, hPRLR.mmh (soluble monomeric human PRLR) (human); assay: SPR (Biacore), antibody capture, 37 C
T6 construct: soluble monomeric PRLR protein
T6 chain: T5 chain with V76I, T110A, M125I, T158I, I207T
Method: as §1

[7] = biological target: T7, human PRLR construct with an HA tag on HEK293/hPRLR cells (human, UniProt P16471 25-622); assay: FACS on HEK293/hPRLR cells
T7 sequence: T2 sequence

[8] = biological target: T2, human PRLR on cells (endogenous on …); assay: cell-based or functional assay
[9] = biological target: T2, human PRLR on cells (endogenous on …); assay: imaging of alexa488 intensity on T47D cells
Method: Briefly, 20,000 T47D cells were seeded in collagen coated 96 well plates. […] Cells were then incubated with alexa488 conjugated anti-hFc Fab secondary antibodies for 30 minutes on ice followed by two additional PBS washes. Antibodies were allowed to internalize for 1 h at 37° C. in internalization buffer (PBS+2% FBS) or remained at 4° C. Cells were fixed in 4% formaldehyde, nuclei were stained with DRAQ5 (Cell signaling), and images were acquired on the ImageXpress micro XL (Molecular Devices). Whole cell alexa488 intensity at 37° C. (Binding) and the alexa488 intensity in the intracellular vesicles at 37° C. (Internalization) were determined via Columbus image analysis software (PerkinElmer).

[10] = biological target: T2, human PRLR on cells (endogenous on …); assay: cell-based or functional assay; remark: listed apart in the source

B1: H1H6803P (antibody, human IgG1, V domains shown)
VH: EVQLVESGGGVVRPGGSLRLSCAASGFKFDDYGMTWVRHVPGKGLEWVSGINWNGGRTGYTDSVKGRFTISRDNAKNSLYLQMNSLRAEDTALYHCAGARRDAFDIWGQGTMVTVSS
VL: DIQMTQSPSSLSASIGDRVTITCRASQNIIKYLNWYQQNAGKAPKLLIYTASSLQSGVPSRFSGSGSGTDFTLTISSLQPEDFATYYCQQSSSSPYTFGQGTKLEIK
binding result [1]: no binding

B2: H1H6795P (antibody, human IgG1, V domains shown)
VH: QVQLVQSGAEVKKPGASVKVSCKASGYTFGTSGITWVRQAPGQGLEWMGWSSAYNGKTDYAQKFQDRVTMTTDTSTTTGYMEMRSLTSDDTAVYYCTTVVRRPFDFWGQGTLVTVSS
VL: DIQMTQSPSSLSASVGDRVTITCRASQDINNFLAWFQQKPGKAPKSLIYAASSLQSGVPSKFSGGGSGTDFALTISSLQPEDFATYYCQQYSSYPITFGQGTRLEIK
binding result [1]: no binding

B3: H1H6793P (antibody, human IgG1, V domains shown)
VH: EVQLVESGGGLVQPGGSLRLSCAASGFSFSIYAMSWFRQAPGKGLEWVSAINGRGDGTHYADSVKGRFTISRDNSKTTLYLQMSSLRAEDTAVYYCAKPVMSTNGFDIWGQGTMVTVSS
VL: DIQMTQSPSTLSASVGDRVTITCRASQSISSWLAWYQLKPGKAPKLLIYKASNLESGVPSRFSGSGSGTEFTLTISSLQPDDFATYYCQQYNIYWTFGQGTKVEIK
binding result [1]: no binding

Continued, values first:

binding result [1]: no binding
B4: H1H6807P (antibody, V domains shown)
VH: QVQLVESGGGVVQPGRSLRLSCAASGFTFSDYNMHWVRQAPGKGLEWVAVIWYDGSNKHYADSVKGRFTISRDNSKNTLYLQMNSLRAEDTAVYYCARDGFTIFGMVLDYWGQGTLVTVSS
VL: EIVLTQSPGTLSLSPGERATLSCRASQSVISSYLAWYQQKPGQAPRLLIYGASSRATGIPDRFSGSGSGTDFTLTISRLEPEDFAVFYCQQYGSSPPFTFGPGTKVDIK

FACS Cell Binding (Fold Above Background) [2]: 45 fold
FACS Cell Binding (Fold Above Background) [3]: 88 fold
Kd [4]: 0.279 nM
T 1/2 [4]: 52 min
koff [4]: 0.000221 s⁻¹
kon [4]: 793000 M⁻¹ s⁻¹
Kd [5]: 10.8 nM
T 1/2 [5]: 1 min
koff [5]: 0.00771 s⁻¹
kon [5]: 711000 M⁻¹ s⁻¹
Kd [6]: 4.63 nM
T 1/2 [6]: 3 min
koff [6]: 0.00441 s⁻¹
kon [6]: 951000 M⁻¹ s⁻¹
FACS Cell Binding (Fold Above Background) [7]: 47 fold
IC50 of Blocking 5 nM PRL [M] (STAT5-Luc reporter, HEK293/hPRLR/STAT5-Luc cells) [8]: 1.4e-10 M
Percent Blocking at 100 nM Antibody (STAT5-Luc reporter) [8]: 100%
% Total Binding relative to Control I [9]: 156%
% Internalization relative to Control I (T47D cells, imaging) [10]: 149%
B5: H1H6801P (antibody, human IgG1, V domains shown)
VH: QVQLQQSGPGLVKPSQTLSLTCVISGDSVSSNTAWNWVRQSPSRGLEWLGRTYYRSKWYNDYAVSVKSRITINPDTSKNQFSLLMNSVTPEDTAVYYCARVVRGLNYFDYWGQGTLVTVSS
VL: DIVMTQSPDSLAVSLGERATINCKSSQSVLYNSNNKNYLAWYQQKPGQPPKLLIYWSSSRESGVPDRFSGSGSGTDFTLTISGLQAEDVAIYYCQQYSTIPYTFGQGTKLEIK
notes: human IgG1 Fc (H1H)

binding result [1]: no binding
B6: H1H6800P (antibody, human IgG1, V domains shown)
VH: EVQLVESGGGLVQPGRSLRLSCAASGFTFDGYAMHWVRQGPGKGLEWVSGISWYSDTLGYADSVKGRFTISRDNAKNSLYLQMNSLRTEDTAFYYCAKISSSGWAFDYWGQGTLVTVSS
VL: EIVLTQSPGTLSLSPGERATLSCRASHSVSSAYLAWYQQKPGQTPRLLIYGTSSRATGIPDRFSGSGSGTDFTLTISRLEPEDFAVYYCQQYGSSPLFTFGPGTKVDIK

binding result [1]: no binding
B7: H1H6797P (antibody, human IgG1, V domains shown)
VH: EVQLVESGGGLVQPGGSLRLSCIVSGFTFSGSWMSWVRQLPGKGLEWVANIKEDGSDSYYVDSVEGRFTISRDNAKSSLYLQMNSLRVDDTAVYFCARARTVPLHYWGQGTLVTVSS
VL: DIQMTQSPSTLSASVGDRVTITCRASQSINIWLAWYQQKPGKAPKLLIYRASYLESGVPSSFAGGGSGTEFTLTISSLQPDDFGTYYCQHYNSYPFTFGQGTKLEIK
